# Measured values published in paper PMC2557009.
# What was measured:
# [1] = molecular target: tubulin (sheep brain) (sheep); test: co-sedimentation; 20 μM tubulin polymerised with 5 μM YB-1 in buffer M with 10% glycerol at 37°C to steady state, microtubules pelleted at 300 000 × g; SDS-PAGE, visual estimation on Coomassie stained gels; conditions: scale: mole of YB-1 per mole of tubulin heterodimer
# [2] = molecular target: tubulin (sheep brain) (sheep); test: co-sedimentation; 20 μM tubulin polymerised with 10 μM YB-1 in buffer M with 10% glycerol at 37°C to steady state, microtubules pelleted at 300 000 × g; SDS-PAGE, visual estimation on Coomassie stained gels; conditions: scale: mole of YB-1 per mole of tubulin heterodimer
# Sequence of YB-1 (Q28618 whole entry): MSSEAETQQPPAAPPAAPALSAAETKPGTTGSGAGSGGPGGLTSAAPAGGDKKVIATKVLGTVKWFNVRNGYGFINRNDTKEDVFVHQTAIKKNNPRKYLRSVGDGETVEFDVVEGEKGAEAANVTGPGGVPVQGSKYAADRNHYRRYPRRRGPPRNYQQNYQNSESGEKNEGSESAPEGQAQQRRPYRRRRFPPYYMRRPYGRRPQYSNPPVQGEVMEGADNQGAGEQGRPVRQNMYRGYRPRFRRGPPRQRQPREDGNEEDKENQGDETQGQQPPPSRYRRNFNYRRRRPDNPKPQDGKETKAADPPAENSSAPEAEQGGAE
substance,measurement,setting,value
YB-1 (from UniProt Q28618 1-324) (natural protein),stoichiometry N,[1],0.33
same,stoichiometry N,[2],0.5
